From patent US8580497B2, “Methods for detection of the oncogenic T1796A B-Raf mutation” (The Wellcome Trust, priority 2001, dated 2013)
Blank lines part the entries; values can stand above or below the compound they belong to.

Columns and labels:
ERK in WM266.4 cells = assay: ERK activity, Western blot with ppERK antibody; assay type: cell-based, human; settings: compound at 10 μM
Protocol: FIG. 3B. Inhibition of ERK in melanoma cell lines using pharmacological reagents. WM266.4 or A375P cells were treated with 10 μM U0126, 10 μM BAY 43-9006 or DMSO as a control. Equivalent amounts of cellular proteins were resolved on SDS-gels and the levels of active ERK were determined using the ppERK antibody.
FIG. 6. Ablation of BRAF, but not CRAF blocks ERK activity in melanoma cells. WM-266.4 or Colo 829 cells were treated with a BRAF specific siRNA probe (BRAF), or the scrambled control (sBRAF), or a CRAF specific probe (CRAF), or its scrambled control (sCRAF), or oligofectamine (oligo) or left untreated (control) as indicated. The cells were incubated for the times indicated, and the Colo 829 cells were treated for 24 hours. The levels of ERK activity in equivalent amounts of cell extract was determined by Western blotting with the ppERK antibody.
In order to validate BRAF as a target in cancer, it is first tested whether the growth of cells that express activated, mutant forms of BRAF required the RAF-MEK-ERK signaling pathway for growth. To this end, melanoma and colorectal cell lines that harbour mutations in the BRAF gene are treated with pharmacological agents that block signaling through this pathway. Two compounds are tested. One is the compound U0126, which is a MEK inhibitor and which therefore uncouples RAF-ERK signaling in cells (Sebolt-Leopold et al., 1999). […]

cellular Ras (human) = assay: cell-based or functional assay
SK-MEL-28 = settings: SK-MEL-28, melanoma, B-Raf V599E
Excerpt: (§1) The second approach is to examine the effects of the compound U0126, an inhibitor of MEK1/2, the only known substrates for B-Raf.

ERK in WM-266-4/WM-115 = settings: WM-266-4/WM-115, melanoma, B-Raf V599D
Excerpt: as §1

WM-266-4/WM-115 = settings: WM-266-4/WM-115, melanoma, B-Raf V599D
Excerpt: as §1

ERK in SK-MEL-28 = settings: SK-MEL-28, melanoma, B-Raf V599E
Excerpt: as §1

ERK in Mawi = settings: colorectal, Ras wt, B-Raf V599E
Excerpt: as §1

Compound: CNC(=O)c1cc(Oc2ccc(NC(=O)Nc3ccc(Cl)c(C(F)(F)F)c3)cc2)ccn1 [BAY 43-9006]
ERK activity (ppERK Western blot) (ERK in WM266.4 cells): strongly suppressed

Compound: L596V B-Raf (myc-epitope tagged)
^V12Ras stimulated kinase activity of B-Raf (immunoprecipitation kinase cascade assay, GST-MEK, GST-ERK and MBP as sequential substrates) (oncogenic Ras (V12Ras)): All five mutants are stimulated by oncogenic Ras (^V12Ras). However, the fold activation for each of the mutants is reduced compared with wild-type B-Raf

Y13-259 S-phase inhibition (percentage of cells that do not incorporate BrdU) after micro-injection; A2058 melanoma cells, Ras status blank, B-Raf V599E (cellular Ras (human)): 0%
Y13-259 S-phase inhibition (percentage of cells that do not incorporate BrdU) after micro-injection; CaCO2 colorectal cells, Ras wt, B-Raf wt (cellular Ras (human)): 60%
Y13-259 S-phase inhibition (percentage of cells that do not incorporate BrdU) after micro-injection; DLD1 colorectal cells, Ras K13Asp/wt, B-Raf wt (cellular Ras (human)): 40%
Y13-259 S-phase inhibition (percentage of cells that do not incorporate BrdU) after micro-injection; HCT-116 colorectal cells, Ras K13 Asp, B-Raf wt (cellular Ras (human)): 95%
Y13-259 S-phase inhibition (percentage of cells that do not incorporate BrdU) after micro-injection; HMV11-Riken melanoma cells, Ras status blank, B-Raf wt (cellular Ras (human)): 100%
Y13-259 S-phase inhibition (percentage of cells that do not incorporate BrdU) after micro-injection; HT29 colorectal cells, Ras wt, B-Raf V599E (cellular Ras (human)): 15%
Y13-259 S-phase inhibition (percentage of cells that do not incorporate BrdU) after micro-injection; JW2 colorectal cells, Ras K12, B-Raf wt (cellular Ras (human)): 79%
Y13-259 S-phase inhibition (percentage of cells that do not incorporate BrdU) after micro-injection; LS174T colorectal cells, Ras K12Asp/wt, B-Raf wt (cellular Ras (human)): 84%
Y13-259 S-phase inhibition (percentage of cells that do not incorporate BrdU) after micro-injection; LS411N colorectal cells, Ras status blank, B-Raf V599E (first value) (cellular Ras (human)): 0%
Y13-259 S-phase inhibition (percentage of cells that do not incorporate BrdU) after micro-injection; LS411N colorectal cells, Ras status blank, B-Raf V599E (second value) (cellular Ras (human)): 0%
Y13-259 S-phase inhibition (percentage of cells that do not incorporate BrdU) after micro-injection; Malme melanoma cells, Ras status blank, B-Raf V599E (cellular Ras (human)): 0%
Y13-259 S-phase inhibition (percentage of cells that do not incorporate BrdU) after micro-injection; Mawi colorectal cells, Ras wt, B-Raf V599E (cellular Ras (human)): 5%
Y13-259 S-phase inhibition (percentage of cells that do not incorporate BrdU) after micro-injection; NCI-H2087 NSCLC cell line pair, Ras onc, B-Raf L596V (cellular Ras (human)): 77%
Y13-259 S-phase inhibition (percentage of cells that do not incorporate BrdU) after micro-injection; SK-MEL-28 melanoma cells, Ras b, B-Raf V599E (cellular Ras (human)): 4%
Y13-259 S-phase inhibition (percentage of cells that do not incorporate BrdU) after micro-injection; SK-Mel2 melanoma cells, Ras status blank, B-Raf wt (cellular Ras (human)): 70%
Y13-259 S-phase inhibition (percentage of cells that do not incorporate BrdU) after micro-injection; SW480 colorectal cells, Ras K12, B-Raf wt (cellular Ras (human)): 57%
Y13-259 S-phase inhibition (percentage of cells that do not incorporate BrdU) after micro-injection; SW620 colorectal cells, Ras onc, B-Raf wt (cellular Ras (human)): 92%
Y13-259 S-phase inhibition (percentage of cells that do not incorporate BrdU) after micro-injection; WM-266-4/WM-115 melanoma cells, Ras b, B-Raf V599D (cellular Ras (human)): 10%
Y13-259 S-phase inhibition (percentage of cells that do not incorporate BrdU) after micro-injection; colo205 colorectal cells, Ras wt, B-Raf V599E (cellular Ras (human)): 3%
Y13-259 S-phase inhibition (percentage of cells that do not incorporate BrdU) after micro-injection; colo741 colorectal cells, Ras status blank, B-Raf V599E (cellular Ras (human)): 0%
Compound: monoclonal antibody Y13-259

Compound: G463V B-Raf (myc-epitope tagged)
^V12Ras stimulated kinase activity of B-Raf (immunoprecipitation kinase cascade assay, GST-MEK, GST-ERK and MBP as sequential substrates) (oncogenic Ras (V12Ras)): All five mutants are stimulated by oncogenic Ras (^V12Ras). However, the fold activation for each of the mutants is reduced compared with wild-type B-Raf

Compound: N#CC(=C(/N)Sc1ccccc1N)/C(C#N)=C(\N)Sc1ccccc1N [U0126]
ERK activity (ppERK Western blot) (ERK in WM266.4 cells): strongly suppressed
U0 inhibit S (SK-MEL-28): 98%
UO/ ERK-inhib (ERK in WM-266-4/WM-115): >90%
U0 inhibit S (WM-266-4/WM-115): >99%
UO/ ERK-inhib (ERK in SK-MEL-28): >90%
UO/ ERK-inhib (ERK in Mawi): >90%

Compound: G595R B-Raf (myc-epitope tagged)
^V12Ras stimulated kinase activity of B-Raf (immunoprecipitation kinase cascade assay, GST-MEK, GST-ERK and MBP as sequential substrates) (oncogenic Ras (V12Ras)): ^G595RB-Raf is also stimulated by ^V12Ras, but the activation was very weak, probably due to the low starting levels

Compound: G468A B-Raf (myc-epitope tagged)
^V12Ras stimulated kinase activity of B-Raf (immunoprecipitation kinase cascade assay, GST-MEK, GST-ERK and MBP as sequential substrates) (oncogenic Ras (V12Ras)): All five mutants are stimulated by oncogenic Ras (^V12Ras). However, the fold activation for each of the mutants is reduced compared with wild-type B-Raf

Compound: V599E B-Raf (myc-epitope tagged)
^V12Ras stimulated kinase activity of B-Raf (immunoprecipitation kinase cascade assay, GST-MEK, GST-ERK and MBP as sequential substrates) (oncogenic Ras (V12Ras)): the fold activation for each of the mutants is reduced compared with wild-type B-Raf (See FIG. 1A, B) and is particularly small in the case of ^V599EB-Raf
